Measured values from paper PMC13006735.
Like-named read-outs stand apart in the source and are kept apart here.

Columns and labels:
[1] = target: Ebola virus (EBOV, Zaire) glycoprotein GP, wild type (Ebola virus (EBOV, Zaire)) (UniProt Q05320)
[2] = target: Sudan virus (SUDV) glycoprotein GP (Sudan virus (SUDV)) (UniProt Q7T9D9)
[3] = target: Sudan virus (SUDV) glycoprotein GP (Sudan virus (SUDV)) (UniProt Q7T9D9); remark: listed apart in the source

| Substance | IC50, neutralisation of EBOV GP pseudovirus (luciferase, Huh7 cells) [1] | IC90, neutralisation of EBOV GP pseudovirus (luciferase, Huh7 cells) [1] | IC90, neutralisation of SUDV GP pseudovirus (luciferase, Huh7 cells) [2] | IC50, neutralisation of SUDV GP pseudovirus (luciferase, Huh7 cells) [3] | IC90, neutralisation of SUDV GP pseudovirus (luciferase, Huh7 cells) [3] |
| --- | --- | --- | --- | --- | --- |
| A50Y/S52Y/L54R-LC (ADI-15946 light chain triple mutant) (antibody) | 0.15 µg/mL | 1.1 µg/mL |  |  |  |
| ADI-15878 (antibody) |  |  | 0.3 µg/mL | 0.04 µg/mL | 0.9 µg/mL |
| H27Q/S52Y/G66R-LC (ADI-15946 light chain triple mutant) (antibody) | 0.15 µg/mL | 0.86 µg/mL |  |  |  |
